Results from patent publication US10323078B2, “Isolated peptides and fragments thereof from fibrinogen for use as drugs, particularly in skin inflammatory diseases” (Universite Paris Descartes, priority 2015, dated 2019).

Tests used:
[1] = system: P. acnes RON strain; test: Adhesion assay, biotinylated P. acnes binding to monocytes (ThP1); type: cell-based, Propionibacterium acnes; conditions: monocytes (THP-1); bacteria pretreated 0.87 to 7 μM, 1 h at 37° C.
Method: FIG. 13: Dose-dependent inhibition of P. acnes RON binding to monocytes cell line. Biotinylated P. acnes RON strain at concentrations adjusted to 0.1 of absorbance at 600 nm was pre-treated with the recombinant peptides Fg1 and Fg2 and incubated 1 h at 37° C. with the human immortalized monocytes cell line ThP1. After removal of unbound bacteria, adhesion activity was detected at 410 nm. Data are means±S.D. of three separate experiments. Statistical significance is indicated by * (P<0.05), ** (P<0.01), *** (P<0.001), and **** (P<0.0001), respectively.
(§1) The bacterial suspension was adjusted at 600 nm to the desired concentration, pretreated with peptides Fg1 and Fg2 at the final concentration ranging from 0.87 to 7 μM for 1 h at 37° C. and deposited on the previously saturated cells with a solution of PBS SVF 2% for 2 h. After incubation for 1 h at 37° C., unbound bacteria are removed by 3 washes with PBS and fixed bacteria are detected by a streptavidin-peroxidase solution of 0.5 μg/ml for 30 min.
Whole P. acnes bacteria are labelled by biotinylation, pre-treated or not with the peptides and contacted with the various cell lines. After removal of the unfixed bacteria, the adhesion activity was measured spectrophotometrically by using the streptavidin-peroxidase conjugate and a chromogenic substrate. […]

[2] = system: P. acnes RON strain; test: Adhesion assay, biotinylated P. acnes binding to fibroblasts (HDF); type: cell-based, Propionibacterium acnes; conditions: bacteria pretreated 0.87 to 7 μM, 1 h at 37° C.
Method: as §1
Whole P. acnes bacteria are labelled by biotinylation, pre-treated or not with the peptides and contacted with the various cell lines. After removal of the unfixed bacteria, the adhesion activity was measured spectrophotometrically by using the streptavidin-peroxidase conjugate and a chromogenic substrate.
The ability of P. acnes strains 6919, RON and PIE was tested at 3 concentrations to adhere to various cells lines. It has been shown that the strains of P. acnes tested bound to the three kind of cell lines tested (keratinocytes, monocytes and fibroblast) with a maximum adhesion strength found for keratinocytes (FIG. 11). Knowing that P. acnes is able to recognize fibrinogen, it was used human and bovine whole fibrinogen to compete the interaction between the bacteria and the target cell. […] Then, the ability Fg1 to inhibit the adhesion of bacteria and RON PIE was evaluated on the 3 main types cell. […]

[3] = system: NHDK cells; test: H2O2 production by keratinocytes stimulated by lipoteichoic acid (LTA); type: cell-based, human; conditions: NHDK pre-treated 24 h with 1.75 to 7 μM, then LTA 10 μg/ml
Method: FIG. 18: Dose-dependent inhibition of H2O2 production by keratinocyte pre-treated by small Fg1-generated peptides and stimulated by lipoteichoic acid (LTA). NHDK cell were incubated for 24 h with recombinant peptide Fg1 (light gray bar) and Fg2 (dark gray bar) at concentrations ranging from 1.75 to 7 μM. Measurement of hydrogen peroxide production was realized by spectrofluorometry as described in Materials and Methods. Controls experiments were done with unstimulated NHDK cell (white bar) and HDF stimulated with LTA at 10 μg/ml (black bar). Data are means±S.D. of three separate experiments. Statistical significance is indicated by * (P<0.05), ** (P<0.01), *** (P<0.001), and **** (P<0.0001), respectively. […]
All cells lines (5·10^4 to 10^5 cells/well) were seeded in 96-well plates (Corning Costar, Brumath, France) and treated as previously described. After stimulation, cells were washed three times in PBS and incubated with 100 μl per wells of 5 μM DHE (for determination of O2^●−) or 5 μM H2-DCFDA (for determination of H2O2) for 30 min as described previously and fluorescence intensity was recorded every hour over a period of 5 h. Fluorescence excitation/emission maxima were for DHE: 480/610 nm and for H2-DCFDA: 507/525 nm. At the end of the experiment, the number of adherent cells was evaluated by the crystal violet assay as described below. […]

B1: MKRMVSWSFHKLKTMKHLLLLLLCVFLVKSQGVNDNEEGFFSARGHRPLDKKREEAPSLRPAPPPISGGGYRARPAKAAATQKKVERKAPDAGGCLHADPDLGVLC (protein)
chain: MKRMVSWSFHKLKTMKHLLLLLLCVFLVKSQGVNDNEEGFFSARGHRPLDKKREEAPSLRPAPPPISGGGRARPAKAAATQKKVERKAPDAGGCLHADPDLGVLCMKRMVSWSFHKLKTMKHLLLLLLCVFLVKSQGVNDNEEGFFSARGHRPLDKKREEAPSLRPAPPPISGGGYRARPAKAAATQKKVERKAPDAGGCLHADPDLGVLC
modifications: GST fusion; fragment Fg1
notes: fragment of Bß chain of human fibrinogen having 106 amino acids; recombinant GST-fused peptide expressed in E. coli
Inhibition of adhesion of P. acnes RON strain [1]: inhibits the adhesion of RON strain in a dose-dependent manner
Inhibition of adhesion of P. acnes RON strain [2]: inhibits the adhesion of RON strain in a dose-dependent manner
Decrease of H2O2 production by LTA-stimulated cells [3]: significantly decreases production of H2O2
